This is an account of results in article PMC5457521 (Nature Communications, 2017).

Test [1] concerns the target T1, DENV2 sE strain FGA02, wild type (recombinant E ectodomain) (Dengue virus 2, strain FGA-02 …, strain).
T1 construct: also called sE WT; DENV2 FGA02 WT
Put plainly: ELISA; capture ELISA: mAb coated at 5 μg ml^−1 on MAXISORP plates; serial dilutions of Strep-tagged sE in solution; ALP-labelled Strep-Tactin. Conditions: one partner purified.

In test [2] the target is T1, DENV2 sE strain FGA02, wild type …. The test can be described thus: SEC-MALS; mixture of 150 μg DENV2 FGA02 sE with 300 μg Fab, Superdex 200 10/300 GL, run in a similar manner as sE alone. Conditions: both partners purified.

B1: anti-EDE2 mAb 747(4)A11, human IgG (antibody, V domains shown)
VH: EVQLVESGGGLVRPGGSLRLSCAASGFSYSNHWMHWVRQAPGKGLVWVSRINSDGSTRNYADFVKGRFTISRDNAENTLYLEMNSLTADDTAVYYCVRDGVRFYYDSTGYYPDSFFKYGMDVWGQGTTVTVSS
VL: QSVLTQPVSVSGSPGQSITISCTGTSSNADTYNLVSWYQQRPGKAPKLMIYEGTKRPSGVSNRFSASKSATAASLTISGLQPEDEADYYCCSYATSRTLVFGGGTKLTVV
B1: the binding result in test [1] is “binds”.

B2: anti-EDE2 Fab A11 (Fab of human mAb 747(4)A11) (Fab, V domains shown)
VH: EVQLVESGGGLVRPGGSLRLSCAASGFSYSNHWMHWVRQAPGKGLVWVSRINSDGSTRNYADFVKGRFTISRDNAENTLYLEMNSLTADDTAVYYCVRDGVRFYYDSTGYYPDSFFKYGMDVWGQGTTVTVSS
VL: QSVLTQPVSVSGSPGQSITISCTGTSSNADTYNLVSWYQQRPGKAPKLMIYEGTKRPSGVSNRFSASKSATAASLTISGLQPEDEADYYCCSYATSRTLVFGGGTKLTVV
On to B2, for which, in test [2], the binding result is listed as “binds”.

B3: anti-EDE2 mAb 747(4)B7, human IgG (antibody, V domains shown)
VH: EVQLVESGGGLVQPGGSLKLSCAASGFTFSSHWMHWVRQAPGKGLVWVSRTNSDGSSTSYADSVKGRFMISRDNSKNTVYLHMNGLRAEDTAVYFCARDGVRYYYDSTGYYPDNFFQYGLDVWGQGTTVTVSS
VL: QSALTQPASVSGSPGQSITISCTGISSDVETYNLVSWYEQHPGKAPKLIIYEASKRPSGVSNRFSGSKSGNTASLAISGLQAEDEADYYCCSYAGGKSLVFGGGTRLTVL
As for B3, in test [1], the binding result is given as “binds”.
